The target of one experiment is Hb1 (Oryza sativa) (UniProt O04986). To be noted: cited from earlier work.
Experiment [1] concerns the target Beta vulgaris ssp. vulgaris phytoglobin type 1.2 (BvPgb1.2) (Beta vulgaris spp. vulgaris). Briefly: NMR 15N relaxation (rotational correlation time from R2/R1, ROTDIF, compared with HYDRONMR values for monomeric and dimeric structures); CN-bound BvPgb1.2, 1 mM protein in 50 mM MOPS pH 7.4, 8% D2O, 298 K, 14.1 T; monomer to dimer.
For experiment [2] the target is unchanged. Briefly: SEC; analytical size exclusion chromatography of the purified protein samples; conditions not given (ref. 23). A general note: SEC sorts molecules by how far they enter the pores of the column.

Consider Hb1 (from UniProt O04986), for which the Kd with Hb1 (Oryza sativa) was 86 µM.

In the case of “Beta vulgaris ssp. vulgaris phytoglobin type 1.2 (BvPgb1.2) (natural protein)”, the stoichiometry N in experiment [1] and in experiment [2] was 2 each time.

By Kd is commonly meant the free concentration of one partner at which half of the binding sites on the other are occupied at equilibrium, for simple one-to-one binding. Broadly, the stoichiometry N is the number of molecules, sites or subunits per partner or assembly.

The values are drawn from publication PMC9961634.
